Test [1] deals with HLA-B*15:01. The experiment in a line: IEDB peptide-MHC binding, purified MHC/competitive/radioactivity; filed as Kd, often an IC50 or EC50 that approximates it; ≥ and ≤ were set here for values at or beyond the usual limits of such assays.
In test [2] the target is HLA-A*23:01. Described as above.
Test [3] deals with HLA-A*24:02. Described as above.
Test [4] addresses HLA-B*46:01. The experiment in a line: IEDB peptide-MHC binding, purified MHC/direct/fluorescence; filed as Kd, often an IC50 or EC50 that approximates it; ≥ and ≤ were set here for values at or beyond the usual limits of such assays. The settings on record: source organism: West Nile virus.
Test [5] addresses HLA-A*01:01. The test is described as follows: IEDB peptide-MHC binding, purified MHC/competitive/radioactivity; filed as Kd, often an IC50 or EC50 that approximates it; ≥ and ≤ were set here for values at or beyond the usual limits of such assays.
Test [6] deals with HLA-B*53:01. The test is described as above.
Test [7] has as its target HLA-B*44:02. The test is described as above. To be noted: source organism: Dengue virus 4 Philippines/H241/1956.
Test [8] concerns the target HLA-A*26:01. The test is described as above. The settings on record: source organism: Dengue virus 1 Brazil/97-11/1997.
The target of test [9] is HLA-A*30:02. Described as above.
The target of test [10] is HLA-A*30:01. The description is as above.
Test [11] has as its target HLA-A*11:01. The test is described as above.
The target of test [12] is HLA-A*03:01. The description is as above.
Test [13] concerns the target HLA-B*58:01. The test is described as follows: IEDB peptide-MHC binding, purified MHC/direct/fluorescence; filed as Kd, often an IC50 or EC50 that approximates it; ≥ and ≤ were set here for values at or beyond the usual limits of such assays. To be noted: source organism: Giardia lamblia ATCC 50803.
Test [14] concerns the target HLA-B*57:01. Described as above. To be noted: source organism: Giardia lamblia ATCC 50803.
Test [15] has as its target HLA-B*40:01. The experiment in a line: IEDB peptide-MHC binding, purified MHC/competitive/radioactivity; filed as Kd, often an IC50 or EC50 that approximates it; ≥ and ≤ were set here for values at or beyond the usual limits of such assays.
In test [16] the target is HLA-B*44:03. The description is as above. To be noted: source organism: Dengue virus 2 Jamaica/1409/1983.
The target in test [17] is HLA-B*15:01. The experiment in a line: IEDB peptide-MHC binding, purified MHC/competitive/fluorescence; filed as Kd, often an IC50 or EC50 that approximates it; ≥ and ≤ were set here for values at or beyond the usual limits of such assays.
The target in test [18] is HLA-A*02:01. The test is described as above. The settings on record: source organism: Escherichia coli B171.
Test [19] addresses HLA-A*68:01. The test is described as follows: IEDB peptide-MHC binding, purified MHC/competitive/radioactivity; filed as Kd, often an IC50 or EC50 that approximates it; ≥ and ≤ were set here for values at or beyond the usual limits of such assays. The settings on record: source organism: Dengue virus 2 Jamaica/1409/1983.
In test [20] the target is HLA-B*46:01. The experiment in a line: IEDB peptide-MHC binding, purified MHC/competitive/fluorescence; filed as Kd, often an IC50 or EC50 that approximates it; ≥ and ≤ were set here for values at or beyond the usual limits of such assays. To be noted: source organism: Francisella tularensis subsp. tularensis FSC198.
[21] abbreviates: source organism: Vaccinia virus WR.
Where [22] appears, read: source organism: Dengue virus 4 Philippines/H241/1956.
Setting [23] is: source organism: Dengue virus 2 Jamaica/1409/1983.
[24] abbreviates: source organism: Dengue virus 3 Martinique/1243/1999.
The mark [25] stands for this setting: source organism: Dengue virus 4 Dominica/814669/1981.
Where [26] appears, read: source organism: Dengue virus 1 Brazil/97-11/1997.

Some results are limits rather than exact numbers.

For orientation: Kd means the constant that tells how readily two partners part at equilibrium. Consider LGRANITHF, for which the Kd in test [1] (setting [21]) is 6.73 nM. Take LIIKLLLPG: the Kd in test [1] (setting [21]) turned out to be 1120 nM. Turning to LLLMRTTWAF, the Kd came to 694 nM in test [2] (setting [22]), 292 nM in test [3] (setting [22]) and 1.24 nM in [1] (setting [22]). For the sequence LMNDPGAPW, the Kd in test [4] was 8980 nM.

For the sequence LQGRGPLKLF, the Kd in [1] (setting [23]) worked out at 135 nM. For LQRKHGGML, the Kd in [1] (setting [24]) was 31.2 nM. For the sequence LSKNTFYLF, the Kd in test [1] (setting [21]) is 14.2 nM. As to LTASLVMLL, the Kd in [5] (setting [25]) is 1900 nM. For LTDGPERVIL, the Kd in [5] (setting [24]) stood at 11800 nM. With LVRSTVSSI, in [1] (source organism: Vaccinia virus Copenhagen), the Kd came out at 527 nM. Take LYAVATTFV: in test [3] (setting [23]), the Kd stood at 66.4 nM. MTDKTPVHSW: the Kd in test [6] (setting [22]) came out at 891 nM; in [7] it was 1410 nM. For the sequence MTSRMLLNRF, the dissociation constant (Kd) in test [5] (setting [26]) was 12300 nM; in [8] it was 2180 nM. Turning to NGVVTTSGTY, in test [9] (setting [26]), the Kd turned out to be 694 nM.

For NPAQEDDQY, in test [6] (setting [22]), the Kd stood at 746 nM. Consider NVRYVFLYK, for which the Kd in test [10] (setting [21]) turned out to be 9.89 nM. On to RASGSYISG, for which, in test [10] (setting [21]), the Kd was found to be 589 nM. Regarding RDKRSVALA, in test [10] (setting [26]), the Kd is 1990 nM. With RKKARSTPFN, the Kd in test [10] (setting [23]) is 3820 nM. Consider RLSNGMPTV, for which the Kd in test [10] (setting [21]) turned out to be 9270 nM. With RMAILGETAW, the Kd was 1620 nM in test [7] and 253 nM in test [1] (setting [22]). Take RTEAKSALK: the Kd in test [10] (setting [22]) was 476 nM; in test [11] (setting [22]), 177 nM; in test [12] (setting [22]), 87.6 nM.

Take RTHFSQPSG: in [10] (setting [21]), the Kd stood at 14.6 nM.

Take RVSVSAILL: the Kd in [10] (setting [21]) turned out to be 14.7 nM.

Regarding SAKNSWLNL, the Kd in test [10] (setting [21]) turned out to be 0.574 nM. Turning to SARGLCNTW, the Kd worked out at 56.5 nM in [13] and 112 nM in test [14]. Turning to SEIPNLDII, the Kd in test [15] (setting [23]) is 112 nM; in [16] it was 60.4 nM. STLRTLKPY displayed a Kd in test [17] (source organism: Bacillus cereus G9241) of 148 nM. Regarding SYAQMWSLMY, in test [9] (source organism: Dengue virus 2 Peru/IQT2913/1996), the Kd is at least 69700 nM. Take TPRMCTREEF: the dissociation constant Kd in test [6] (setting [23]) was 1300 nM. On to TVFIRFPHY, for which the results for the Kd in [10] (setting [21]) and in test [1] (setting [21]) were 1270 nM and 123 nM, respectively. As for VEETNMITLL, the Kd in [15] (setting [25]) was found to be 25 nM. For the sequence VQYRGLYQI, the values for the Kd in test [18] and in [17] (source organism: Escherichia coli B171) were 125 nM and 107 nM, respectively. As to VSYSTFCLG, in [1] (setting [21]), the Kd came out at 710 nM. As for VTFKNPHAK, the Kd in [10] (setting [23]) is 278 nM; in test [11] (setting [23]), 137 nM; in test [12] (setting [23]), 9.59 nM; in [19], 133 nM. As for VVRLLTKPWD, the Kd in test [10] (setting [23]) amounted to 3780 nM.

As for WENNIKLTV, in test [15] (setting [24]), the Kd came out at 120 nM. On to WMVHRQWFF, for which the Kd in [2] (setting [24]) turned out to be 125 nM; in test [3] (setting [24]), 835 nM. As for WYAQIQPHWI, the Kd in [3] (setting [23]) is 49.3 nM. On to YIGGTTQAF, for which, in test [20], the Kd was determined as 4420 nM.

Values taken from the Immune Epitope Database (IEDB).
